Data from paper PMC4894940, “The function of the two-pore channel TPC1 depends on dimerization of its carboxy-terminal helix” (Cellular and Molecular Life Sciences: CMLS, 2016).

How the values were obtained:
[1] = test system: slow vacuolar (SV) currents in tpc1-2 vacuoles; assay: Whole-vacuolar patch-clamp of TPC1 variants (SV currents); type: cell-based, Arabidopsis thaliana; settings: for reduction of whole-vacuolar current amplitude: relative to TPC1 wild type
Description: (§1) Expression of GFP-fusion proteins for electrophysiological measurements or confocal microscopy was performed in A. thaliana tpc1-2 mesophyll protoplasts as described. Briefly, leaves were enzymatically digested to release mesophyll protoplasts, which were then transformed by the polyethylene glycol method. Protoplasts were used for electrophysiological measurements and subcellular localization of GFP fluorescence 2–4 days after transformation.
(§2) Patch-clamp experiments were performed on transformed vacuoles harboring two-pore channels as identified by GFP fluorescence. The pipette (luminal) solution consisted of 100 mM K-gluconate, 2 mM MgCl2, 10 mM EGTA, 10 mM MES, pH 5.5/Tris. The bath (cytosolic) solution contained 50 mM K-gluconate, 1 mM CaCl2, 1 mM MgCl2, 2 mM DTT, 10 mM HEPES, pH 7.5/Tris. Solutions were adjusted to 430 mosmol/kg by adding D-sorbitol. For analysis of the TPC1-S706 mutants two further calcium concentrations of the bath solution were used in which 1 mM CaCl2 was substituted by 0.2 mM or 0.05 mM CaCl2, respectively. Competition assays using the CTH peptide were performed on endogenous TPC1 channels in vacuoles isolated from Col-0 plants. Peptides were dissolved at 10 mM in bath solution supplemented with 1 % DMSO and 0.1 % pluronic, and diluted >600-fold for application in patch-clamp recordings. Currents were recorded either in the whole-vacuolar or cytosolic side-out configuration of the patch-clamp technique, using an EPC10 amplifier and the program PULSE (HEKA electronics, Lambrecht, Germany). Recordings and data analysis were performed as described earlier. Relative open probabilities (P o) were determined from tail currents at −53 mV, following pulses to the different test voltages. Tail currents were normalized to the maximum values at 1 mM Ca^2+, plotted as a function of the applied test voltage, and fitted according to the Boltzmann equation: PO=A/1+exp^zF/RT·(Vo-V) where V o and z are parameters for the voltage at half-maximum open probability and the apparent number of gating charges, respectively, and A describes the maximum conductance that is reached under the experimental conditions.

[2] = test system: excised cytosolic side-out vacuolar membrane patches of tpc1-2 cells; assay: Excised cytosolic side-out patch recordings of TPC1 variants; type: cell-based, Arabidopsis thaliana; settings: for current remaining following reduction of Ca2+ from 1 mM to 200 µM: at 107 mV, Ca2+ reduced from 1 mM to 200 µM (n = 3–7)
Description: as §1, §2

B1: TPC1-3LA: leucines L714, 715, 719 of TPC1 replaced by alanine (protein, UniProt Q94KI8 1-733, looked up, variant L714A L715A L719A)
Two pore calcium channel …: MEDPLIGRDSLGGGGTDRVRRSEAITHGTPFQKAAALVDLAEDGIGLPVEILDQSSFGESARYYFIFTRLDLIWSLNYFALLFLNFFEQPLWCEKNPKPSCKDRDYYYLGELPYLTNAESIIYEVITLAILLVHTFFPISYEGSRIFWTSRLNLVKVACVVILFVDVLVDFLYLSPLAFDFLPFRIAPYVRVIIFILSIRELRDTLVLLSGMLGTYLNILALWMLFLLFASWIAFVMFEDTQQGLTVFTSYGATLYQMFILFTTSNNPDVWIPAYKSSRWSSVFFVLYVLIGVYFVTNLILAVVYDSFKEQLAKQVSGMDQMKRRMLEKAFGLIDSDKNGEIDKNQCIKLFEQLTNYRTLPKISKEEFGLIFDELDDTRDFKINKDEFADLCQAIALRFQKEEVPSLFEHFPQIYHSALSQQLRAFVRSPNFGYAISFILIINFIAVVVETTLDIEESSAQKPWQVAEFVFGWIYVLEMALKIYTYGFENYWREGANRFDFLVTWVIVIGETATFITPDENTFFSNGEWIRYLLLARMLRLIRLLMNVQRYRAFIATFITLIPSLMPYLGTIFCVLCIYCSIGVQVFGGLVNAGNKKLFETELAEDDYLLFNFNDYPNGMVTLFNLLVMGNWQVWMESYKDLTGTWWSITYFVSFYVITILLLLNLVVAFVLEAFFTELDLEEEEKCQGQDSQEKRNRRRSAGSKSRSQRVDTAAHHMAGDELSKPECSTSDT
modifications: C-terminal GFP
notes: leucines L714, 715, 719 of TPC1 replaced by alanine
[1]; whole-vacuolar, GFP-fusion in tpc1-2 vacuoles, 1 mM CaCl2 bath, pH 7.5
  whole-vacuolar SV currents: loss of SV currents to a similar extent as TPC1-3LP
[2]; excised cytosolic side-out patch, tpc1-2 cell, linear fit
  single-channel conductance: 58 pS
[2]; excised patches, tpc1-2 cells
  macroscopic currents in excised patches: no macroscopic currents were resolved

B2: TPC1-S706D (protein, UniProt Q94KI8 1-733, looked up, variant S706D)
Two pore calcium channel …: MEDPLIGRDSLGGGGTDRVRRSEAITHGTPFQKAAALVDLAEDGIGLPVEILDQSSFGESARYYFIFTRLDLIWSLNYFALLFLNFFEQPLWCEKNPKPSCKDRDYYYLGELPYLTNAESIIYEVITLAILLVHTFFPISYEGSRIFWTSRLNLVKVACVVILFVDVLVDFLYLSPLAFDFLPFRIAPYVRVIIFILSIRELRDTLVLLSGMLGTYLNILALWMLFLLFASWIAFVMFEDTQQGLTVFTSYGATLYQMFILFTTSNNPDVWIPAYKSSRWSSVFFVLYVLIGVYFVTNLILAVVYDSFKEQLAKQVSGMDQMKRRMLEKAFGLIDSDKNGEIDKNQCIKLFEQLTNYRTLPKISKEEFGLIFDELDDTRDFKINKDEFADLCQAIALRFQKEEVPSLFEHFPQIYHSALSQQLRAFVRSPNFGYAISFILIINFIAVVVETTLDIEESSAQKPWQVAEFVFGWIYVLEMALKIYTYGFENYWREGANRFDFLVTWVIVIGETATFITPDENTFFSNGEWIRYLLLARMLRLIRLLMNVQRYRAFIATFITLIPSLMPYLGTIFCVLCIYCSIGVQVFGGLVNAGNKKLFETELAEDDYLLFNFNDYPNGMVTLFNLLVMGNWQVWMESYKDLTGTWWSITYFVSFYVITILLLLNLVVAFVLEAFFTELDLEEEEKCQGQDSQEKRNRRRSAGSKDRSQRVDTLLHHMLGDELSKPECSTSDT
[1]
  reduction of whole-vacuolar current amplitude: 58%
[2]
  current remaining following reduction of Ca2+ from 1 mM to 200 µM: 24 ± 4%

B3: TPC1-S706A (protein, UniProt Q94KI8 1-733, looked up, variant S706A)
Two pore calcium channel …: MEDPLIGRDSLGGGGTDRVRRSEAITHGTPFQKAAALVDLAEDGIGLPVEILDQSSFGESARYYFIFTRLDLIWSLNYFALLFLNFFEQPLWCEKNPKPSCKDRDYYYLGELPYLTNAESIIYEVITLAILLVHTFFPISYEGSRIFWTSRLNLVKVACVVILFVDVLVDFLYLSPLAFDFLPFRIAPYVRVIIFILSIRELRDTLVLLSGMLGTYLNILALWMLFLLFASWIAFVMFEDTQQGLTVFTSYGATLYQMFILFTTSNNPDVWIPAYKSSRWSSVFFVLYVLIGVYFVTNLILAVVYDSFKEQLAKQVSGMDQMKRRMLEKAFGLIDSDKNGEIDKNQCIKLFEQLTNYRTLPKISKEEFGLIFDELDDTRDFKINKDEFADLCQAIALRFQKEEVPSLFEHFPQIYHSALSQQLRAFVRSPNFGYAISFILIINFIAVVVETTLDIEESSAQKPWQVAEFVFGWIYVLEMALKIYTYGFENYWREGANRFDFLVTWVIVIGETATFITPDENTFFSNGEWIRYLLLARMLRLIRLLMNVQRYRAFIATFITLIPSLMPYLGTIFCVLCIYCSIGVQVFGGLVNAGNKKLFETELAEDDYLLFNFNDYPNGMVTLFNLLVMGNWQVWMESYKDLTGTWWSITYFVSFYVITILLLLNLVVAFVLEAFFTELDLEEEEKCQGQDSQEKRNRRRSAGSKARSQRVDTLLHHMLGDELSKPECSTSDT
[1]
  reduction of whole-vacuolar current amplitude: 53%
[2]
  current remaining following reduction of Ca2+ from 1 mM to 200 µM: 28 ± 3%
